Measurements from paper PMC4323418.
Read-outs that look alike come from different tables or passages of the source.

T1: CceR-6xHis (Rhodobacter sphaeroides 2.4.1, UniProt Q3J5X3 1-345)
T1 sequence: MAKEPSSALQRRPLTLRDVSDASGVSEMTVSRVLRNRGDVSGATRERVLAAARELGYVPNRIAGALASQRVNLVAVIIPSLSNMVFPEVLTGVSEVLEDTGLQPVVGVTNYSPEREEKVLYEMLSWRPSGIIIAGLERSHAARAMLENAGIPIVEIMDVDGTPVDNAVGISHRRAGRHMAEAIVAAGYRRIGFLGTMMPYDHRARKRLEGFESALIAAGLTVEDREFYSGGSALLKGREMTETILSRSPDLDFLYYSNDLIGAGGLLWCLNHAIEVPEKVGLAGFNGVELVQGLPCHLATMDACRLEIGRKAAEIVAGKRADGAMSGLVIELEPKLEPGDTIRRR

B1: zwf promoter fragment (dsDNA)
DNA 1: CGGGCGTCTTTCCACATTTACCCCGGCGGGGGGCGCGCTAGACTCGGGCCACGGCAGCCGCTAGAACGGCCGTTAGCGCTAACAGGCGAGGCAGC
DNA 2: GCTGCCTCGCCTGTTAGCGCTAACGGCCGTTCTAGCGGCTGCCGTGGCCCGAGTCTAGCGCGCCCCCCGCCGGGGTAAATGTGGAAAGACGCCCG
B2: bchF promoter fragment (dsDNA)
DNA 1: TCATCCAAGGAGGAACGCATGTCAAAGAAAATTGACACCTCAGGCAGCGGAGGCAGCCCATCCCCCGCTGAACTCACACTTAATCCTTGGATTTACGACAGAGTGTCGCAGCTTC
DNA 2: GAAGCTGCGACACTCTGTCGTAAATCCAAGGATTAAGTGTGAGTTCAGCGGGGGATGGGCTGCCTCCGCTGCCTGAGGTGTCAATTTTCTTTGACATGCGTTCCTCCTTGGATGA

Legend:
CceR-6xHis [1] = target: T1, CceR-6xHis; assay: EMSA
CceR-6xHis [2] = target: T1, CceR-6xHis; assay: EMSA; remark: listed apart in the source

Row | Binder | binding result (CceR-6xHis [1]) | binding result (CceR-6xHis [2])
1 | B1 | binds | –
2 | B2 | – | no binding
